Molecular target: T1, MLO-Y4 cell surface proteins (Mus musculus, UniProt P59242)
T1 construct: endogenous in cells; host or cells: MLO-Y4
T1 sequence (P59242 1-1191): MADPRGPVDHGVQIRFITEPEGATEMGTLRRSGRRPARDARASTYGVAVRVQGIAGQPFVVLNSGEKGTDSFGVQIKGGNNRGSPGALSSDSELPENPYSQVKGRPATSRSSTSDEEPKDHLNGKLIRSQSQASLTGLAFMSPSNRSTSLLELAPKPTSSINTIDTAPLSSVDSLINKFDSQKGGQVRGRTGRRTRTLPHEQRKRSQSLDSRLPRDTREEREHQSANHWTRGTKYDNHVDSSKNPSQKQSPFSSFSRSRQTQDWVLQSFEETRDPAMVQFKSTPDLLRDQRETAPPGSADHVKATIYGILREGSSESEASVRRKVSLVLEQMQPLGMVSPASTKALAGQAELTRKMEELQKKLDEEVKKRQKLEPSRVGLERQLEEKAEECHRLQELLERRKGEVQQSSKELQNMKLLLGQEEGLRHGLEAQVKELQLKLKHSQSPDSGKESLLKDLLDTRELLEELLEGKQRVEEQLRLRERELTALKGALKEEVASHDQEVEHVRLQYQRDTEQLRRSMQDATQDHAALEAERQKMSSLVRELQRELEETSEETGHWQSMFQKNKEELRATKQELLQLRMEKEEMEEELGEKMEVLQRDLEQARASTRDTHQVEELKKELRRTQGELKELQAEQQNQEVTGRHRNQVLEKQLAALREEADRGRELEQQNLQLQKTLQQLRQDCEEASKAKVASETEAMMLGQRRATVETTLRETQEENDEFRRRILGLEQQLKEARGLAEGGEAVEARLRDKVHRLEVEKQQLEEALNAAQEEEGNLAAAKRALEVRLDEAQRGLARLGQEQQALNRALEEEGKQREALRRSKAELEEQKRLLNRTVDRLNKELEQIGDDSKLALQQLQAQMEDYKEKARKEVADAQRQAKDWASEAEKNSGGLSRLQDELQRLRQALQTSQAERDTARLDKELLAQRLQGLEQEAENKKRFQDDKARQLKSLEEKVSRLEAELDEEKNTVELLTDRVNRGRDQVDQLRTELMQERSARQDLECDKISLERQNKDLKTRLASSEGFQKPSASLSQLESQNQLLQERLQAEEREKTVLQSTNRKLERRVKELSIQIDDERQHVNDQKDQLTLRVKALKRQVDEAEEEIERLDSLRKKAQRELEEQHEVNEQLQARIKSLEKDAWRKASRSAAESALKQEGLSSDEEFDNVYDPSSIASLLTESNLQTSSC
Assay: Crosslinking/co-immunoprecipitation/mass spectrometry (TMT quantitative proteomics) to identify irisin receptors
Assay type: binding
Details: co-precipitated protein Cgn (CING_MOUSE)
Procedure, shortened: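 Mouse MLO-Y4 cells were switched to serum-free FreeStyle medium for 4 h, chilled, then exposed to 10 nM His-tagged irisin (or adipsin as control) for 20 min. Cells were crosslinked with 1.5 mM DTSSP (30 min, ice), and bound proteins were pulled down on Ni-NTA and eluted with 250 mM imidazole. Eluates were separated by SDS-PAGE, trypsin-digested in gel, TMT 6-plex labelled and quantified by MS3-based LC-MS/MS on an Orbitrap Fusion Lumos.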

adipsin
TMT signal-to-noise ratio: 200.289
